For one data set, the target named is T1, RNase R R572K (Escherichia coli, UniProt P21499 1-813, R572K).
T1 sequence: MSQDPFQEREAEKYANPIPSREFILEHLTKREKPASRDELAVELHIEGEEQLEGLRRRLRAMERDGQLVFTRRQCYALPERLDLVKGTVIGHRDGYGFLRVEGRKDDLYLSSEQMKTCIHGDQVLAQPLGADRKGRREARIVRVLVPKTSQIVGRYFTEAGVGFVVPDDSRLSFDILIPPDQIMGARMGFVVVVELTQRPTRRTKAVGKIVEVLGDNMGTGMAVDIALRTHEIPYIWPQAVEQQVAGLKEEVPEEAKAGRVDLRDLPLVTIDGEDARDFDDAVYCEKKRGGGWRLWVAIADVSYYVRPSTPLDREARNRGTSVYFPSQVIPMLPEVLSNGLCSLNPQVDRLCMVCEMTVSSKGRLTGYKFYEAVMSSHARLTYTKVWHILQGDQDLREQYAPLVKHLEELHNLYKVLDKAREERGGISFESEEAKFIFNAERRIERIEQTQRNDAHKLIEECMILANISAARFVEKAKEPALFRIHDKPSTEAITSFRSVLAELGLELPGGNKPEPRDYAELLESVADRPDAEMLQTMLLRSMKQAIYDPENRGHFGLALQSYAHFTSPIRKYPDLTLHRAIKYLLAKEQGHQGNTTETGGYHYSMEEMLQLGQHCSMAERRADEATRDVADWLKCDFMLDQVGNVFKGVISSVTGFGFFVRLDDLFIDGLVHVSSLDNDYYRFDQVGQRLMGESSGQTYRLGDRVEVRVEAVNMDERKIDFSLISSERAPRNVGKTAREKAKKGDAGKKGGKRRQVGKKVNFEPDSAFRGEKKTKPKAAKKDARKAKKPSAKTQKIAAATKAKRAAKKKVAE
Put plainly: filter binding.

For a further data set, the target named is T2, RNase R wild-type (Escherichia coli, UniProt P21499 1-813).
T2 sequence: T1 sequence with K572R
Put plainly: filter binding.

Positions count from the first letter of the chain named.

What is called Kd is the equilibrium constant for the complex coming apart. A low value points to higher affinity. On to AAAAAAAAAAAAAAAAA (ssRNA) [A17], for which the results for the Kd with RNase R R572K and with RNase R wild-type were 500 ± 100 pM and 800 ± 100 pM, respectively.

These data come from PMC2786168.
